Measurements as given in IntAct's records for PubMed 31515488.

B1: Segment polarity protein dishevelled homolog DVL-2 (Homo sapiens), O14641 (parent)
chain: MAGSSTGGGGVGETKVIYHLDEEETPYLVKIPVPAERITLGDFKSVLQRPAGAKYFFKSMDQDFGVVKEEISDDNARLPCFNGRVVSWLVSSDNPQPEMAPPVHEPRAELAPPAPPLPPLPPERTSGIGDSRPPSFHPNVSSSHENLEPETETESVVSLRRERPRRRDSSEHGAGGHRTGGPSRLERHLAGYESSSTLMTSELESTSLGDSDEEDTMSRFSSSTEQSSASRLLKRHRRRRKQRPPRLERTSSFSSVTDSTMSLNIITVTLNMEKYNFLGISIVGQSNERGDGGIYIGSIMKGGAVAADGRIEPGDMLLQVNDMNFENMSNDDAVRVLRDIVHKPGPIVLTVAKCWDPSPQAYFTLPRNEPIQPIDPAAWVSHSAALTGTFPAYPGSSSMSTITSGSSLPDGCEGRGLSVHTDMASVTKAMAAPESGLEVRDRMWLKITIPNAFLGSDVVDWLYHHVEGFPERREARKYASGLLKAGLIRHTVNKITFSEQCYYVFGDLSGGCESYLVNLSLNDNDGSSGASDQDTLAPLPGATPWPLLPTFSYQYPAPHPYSPQPPPYHELSSYTYGGGSASSQHSEGSRSSGSTRSDGGAGRTGRPEERAPESKSGSGSESEPSSRGGSLRRGGEASGTSDGGPPPSRGSTGGAPNLRAHPGLHPYGPPPGMALPYNPMMVVMMPPPPPPVPPAVQPPGAPPVRDLGSVPPELTASRQSFHMAMGNPSEFFVDVM
B2: Forkhead box protein P3 (Homo sapiens), Q9BZS1 (parent)
chain: MPNPRPGKPSAPSLALGPSPGASPSWRAAPKASDLLGARGPGGTFQGRDLRGGAHASSSSLNPMPPSQLQLPTLPLVMVAPSGARLGPLPHLQALLQDRPHFMHQLSTVDAHARTPVLQVHPLESPAMISLTPPTTATGVFSLKARPGLPPGINVASLEWVSREPALLCTFPNPSAPRKDSTLSAVPQSSYPLLANGVCKWPGCEKVFEEPEDFLKHCQADHLLDEKGRAQCLLQREMVQSLEQQLVLEKEKLSAMQAHLAGKMALTKASSVASSDKGSCCIVAAGSQGPVVPAWSGPREAPDSLFAVRRHLWGSHGNSTFPEFLHNMDYFKFHNMRPPFTYATLIRWAILEAPEKQRTLNEIYHWFTRMFAFFRNHPATWKNAIRHNLSLHKCFVRVESEKGAVWTVDELEFRKKRSQRPSRCSNPTPGP
B3: SKA complex subunit 1 (Homo sapiens), Q96BD8 (parent)
chain: MASSDLEQLCSHVNEKIGNIKKTLSLRNCGQEPTLKTVLNKIGDEIIVINELLNKLELEIQYQEQTNNSLKELCESLEEDYKDIEHLKENVPSHLPQVTVTQSCVKGSDLDPEEPIKVEEPEPVKKPPKEQRSIKEMPFITCDEFNGVPSYMKSRLTYNQINDVIKEINKAVISKYKILHQPKKSMNSVTRNLYHRFIDEETKDTKGRYFIVEADIKEFTTLKADKKFHVLLNILRHCRRLSEVRGGGLTRYVIT
partner: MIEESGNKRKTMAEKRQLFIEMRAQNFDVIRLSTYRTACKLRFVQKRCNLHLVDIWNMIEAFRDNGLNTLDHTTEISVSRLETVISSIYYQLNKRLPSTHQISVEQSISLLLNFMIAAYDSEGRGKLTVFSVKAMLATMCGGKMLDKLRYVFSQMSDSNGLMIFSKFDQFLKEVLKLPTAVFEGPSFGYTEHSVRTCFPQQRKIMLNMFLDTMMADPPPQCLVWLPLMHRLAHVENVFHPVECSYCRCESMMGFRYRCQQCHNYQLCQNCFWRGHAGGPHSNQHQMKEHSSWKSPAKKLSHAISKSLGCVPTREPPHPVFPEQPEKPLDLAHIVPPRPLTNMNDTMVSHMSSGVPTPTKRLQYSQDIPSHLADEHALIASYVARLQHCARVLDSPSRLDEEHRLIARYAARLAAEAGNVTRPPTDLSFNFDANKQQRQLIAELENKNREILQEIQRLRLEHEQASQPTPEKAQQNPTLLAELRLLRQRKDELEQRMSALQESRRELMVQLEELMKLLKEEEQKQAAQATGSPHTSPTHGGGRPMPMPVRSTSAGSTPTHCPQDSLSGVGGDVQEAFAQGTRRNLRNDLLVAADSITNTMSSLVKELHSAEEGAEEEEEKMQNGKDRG
B4: Progranulin (Homo sapiens), P28799 (parent)
chain: MWTLVSWVALTAGLVAGTRCPDGQFCPVACCLDPGGASYSCCRPLLDKWPTTLSRHLGGPCQVDAHCSAGHSCIFTVSGTSSCCPFPEAVACGDGHHCCPRGFHCSADGRSCFQRSGNNSVGAIQCPDSQFECPDFSTCCVMVDGSWGCCPMPQASCCEDRVHCCPHGAFCDLVHTRCITPTGTHPLAKKLPAQRTNRAVALSSSVMCPDARSRCPDGSTCCELPSGKYGCCPMPNATCCSDHLHCCPQDTVCDLIQSKCLSKENATTDLLTKLPAHTVGDVKCDMEVSCPDGYTCCRLQSGAWGCCPFTQAVCCEDHIHCCPAGFTCDTQKGTCEQGPHQVPWMEKAPAHLSLPDPQALKRDVPCDNVSSCPSSDTCCQLTSGEWGCCPIPEAVCCSDHQHCCPQGYTCVAEGQCQRGSEIVAGLEKMPARRASLSHPRDIGCDQHTSCPVGQTCCPSLGGSWACCQLPHAVCCEDRQHCCPAGYTCNVKARSCEKEVVSAQPATFLARSPHVGVKDVECGEGHFCHDNQTCCRDNRQGWACCPYRQGVCCADRRHCCPAGFRCAARGTKCLRREAPRWDAPLRDPALRQLL

Variants of: B1
Conditions: with thap1_human THAP1, Q9NVV9
Sequence of thap1_human THAP1, Q9NVV9 (Q9NVV9 whole entry): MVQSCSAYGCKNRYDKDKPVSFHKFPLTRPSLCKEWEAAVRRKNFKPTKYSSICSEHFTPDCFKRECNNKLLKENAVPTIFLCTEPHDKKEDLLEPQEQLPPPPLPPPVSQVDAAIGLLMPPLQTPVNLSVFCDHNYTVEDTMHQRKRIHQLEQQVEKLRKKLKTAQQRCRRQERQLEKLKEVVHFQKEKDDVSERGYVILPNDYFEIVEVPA

| Variant | effect of a mutation on the interaction |
| --- | --- |
| A53V | with no effect |
| T535I | with no effect |

Variants of: B1
Conditions: with kc1e_human CSNK1E

| Variant | effect of a mutation on the interaction |
| --- | --- |
| A53V | with no effect |
| T535I | with no effect |

Variants of: B2
Conditions: with pr20e_human PRR20E

| Variant | effect of a mutation on the interaction |
| --- | --- |
| MPNPRPGKPSAPSLALGPSPGASPSWRAAPKASDLLGARGPGGTFQGRDLRGGAHASSCSLNPMPPSQLQLPTLPLVMVAPSGARLGPLPHLQALLQDRPHFMHQLSTVDAHARTPVLQVHPLESPAMISLTPPTTATGVFSLKARPGLPPGINVASLEWVSREPALLCTFPNPSAPRKDSTLSAVPQSSYPLLANGVCKWPGCEKVFEEPEDFLKHCQADHLLDEKGRAQCLLQREMVQSLEQQLVLEKEKLSAMQAHLAGKMALTKASSVASSDKGSCCIVAAGSQGPVVPAWSGPREAPDSLFAVRRHLWGSHGNSTFPEFLHNMDYFKFHNMRPPFTYATLIRWAILEAPEKQRTLNEIYHWFTRMFAFFRNHPATWKNAIRHNLSLHKCFVRVESEKGAVWTVDELEFRKKRSQRPSRCSNPTPGP [S59C] | with no effect |

Variants of: B2
Conditions: with rbpms_human RBPMS

| Variant | effect of a mutation on the interaction |
| --- | --- |
| MPNPRPGKPSAPSLALGPSPGASPSWRAAPKASDLLGARGPGGTFQGRDLRGGAHASSCSLNPMPPSQLQLPTLPLVMVAPSGARLGPLPHLQALLQDRPHFMHQLSTVDAHARTPVLQVHPLESPAMISLTPPTTATGVFSLKARPGLPPGINVASLEWVSREPALLCTFPNPSAPRKDSTLSAVPQSSYPLLANGVCKWPGCEKVFEEPEDFLKHCQADHLLDEKGRAQCLLQREMVQSLEQQLVLEKEKLSAMQAHLAGKMALTKASSVASSDKGSCCIVAAGSQGPVVPAWSGPREAPDSLFAVRRHLWGSHGNSTFPEFLHNMDYFKFHNMRPPFTYATLIRWAILEAPEKQRTLNEIYHWFTRMFAFFRNHPATWKNAIRHNLSLHKCFVRVESEKGAVWTVDELEFRKKRSQRPSRCSNPTPGP [S59C] | with no effect |

Variants of: B3
Conditions: with dtnb_human DTNB

| Variant | effect of a mutation on the interaction |
| --- | --- |
| MASSDLEQLCSHVNEKIGNIKKTLSLRNCGQEPTLKTVLNKIGDEIIVINELLNKLELEIQYQEQTNNSLKELCESLEEDYKDIEHLKENIPSHLPQVTVTQSCVKGSDLDPEEPIKVEEPEPVKKPPKEQRSIKEMPFITCDEFNGVPSYMKSRLTYNQINDVIKEINKAVISKYKILHQPKKSMNSVTRNLYHRFIDEETKDTKGRYFIVEADIKEFTTLKADKKFHVLLNILRHCRRLSEVRGGGLTRYVIT [V91I] | with no effect |

Variants of: B4
Conditions: with hxa1_human HOXA1, P49639
Sequence of hxa1_human HOXA1, P49639 (P49639 whole entry): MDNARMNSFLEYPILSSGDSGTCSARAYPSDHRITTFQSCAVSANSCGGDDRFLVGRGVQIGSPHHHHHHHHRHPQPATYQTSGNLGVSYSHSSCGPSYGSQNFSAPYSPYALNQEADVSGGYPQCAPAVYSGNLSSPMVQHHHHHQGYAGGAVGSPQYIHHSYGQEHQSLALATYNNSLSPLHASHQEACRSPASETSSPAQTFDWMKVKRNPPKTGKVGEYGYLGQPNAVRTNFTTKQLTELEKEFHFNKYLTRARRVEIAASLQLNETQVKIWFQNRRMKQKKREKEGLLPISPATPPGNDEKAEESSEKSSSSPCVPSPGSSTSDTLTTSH

| Variant | effect of a mutation on the interaction |
| --- | --- |
| MWTLVSWVALTAGLVAGTRCPDGQFCPVACCLDPGGASYSCCRPLLDKWPTTLSRHLGGPCQVDAHCSAGHSCIFTVSGTSSCCPFPEAVACGDGHHCCPRGFHCSADGRSCFQRSGNNSVGAIQCPDSQFECPDFSTCCVMVDGSWGCCPMPQASCCEDRVHCCPHGAFCDLVHTRCITPTGTHPLAKKLPAQRTNRAVALSSSVMCPDARSRCPDGSTCCELPSGKYGCCPMPNATCCSDHLHCCPQDTVCDLIQSKCLSKENATTDLLTKLPAHTVGDVKCDMEVSCPDGYTCCRLQSGAWGCCPFTQAVCCEDHIHCCPAGFTCDTQKGTCEQGPHQVPWMEKAPAHLSLPDPQALKRDVPCDNVSSCPSSDTCCQLTSGEWGCCPIPEAVCCSDHQHCCPQGYTCVAEGQCQRGSEIVAGLEKMPARRASLSHPRDIGCDQHTSCPVGQTCCPSLGGSWACCQLPHAVCCEDRQHCCPAGYTCNVKARSCEKEVVSAQPATFLARSPHVGVKDVECGEGHFCHDNQTCCRENRQGWACCPYRQGVCCADRRHCCPAGFRCAARGTKCLRREAPRWDAPLRDPALRQLL [D536E] | with no effect |

Variants of: B4
Conditions: with glrx3_human GLRX3, O76003
Sequence of glrx3_human GLRX3, O76003 (O76003 whole entry): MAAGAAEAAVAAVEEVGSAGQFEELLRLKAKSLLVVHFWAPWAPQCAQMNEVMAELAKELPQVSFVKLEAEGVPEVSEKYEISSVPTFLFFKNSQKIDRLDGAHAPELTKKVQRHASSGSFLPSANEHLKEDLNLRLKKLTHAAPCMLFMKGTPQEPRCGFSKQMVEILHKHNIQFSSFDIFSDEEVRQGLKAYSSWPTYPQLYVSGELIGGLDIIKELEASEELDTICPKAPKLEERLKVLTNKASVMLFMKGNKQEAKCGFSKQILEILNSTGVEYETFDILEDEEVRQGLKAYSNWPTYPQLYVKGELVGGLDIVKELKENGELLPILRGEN

| Variant | effect of a mutation on the interaction |
| --- | --- |
| MWTLVSWVALTAGLVAGTRCPDGQFCPVACCLDPGGASYSCCRPLLDKWPTTLSRHLGGPCQVDAHCSAGHSCIFTVSGTSSCCPFPEAVACGDGHHCCPRGFHCSADGRSCFQRSGNNSVGAIQCPDSQFECPDFSTCCVMVDGSWGCCPMPQASCCEDRVHCCPHGAFCDLVHTRCITPTGTHPLAKKLPAQRTNRAVALSSSVMCPDARSRCPDGSTCCELPSGKYGCCPMPNATCCSDHLHCCPQDTVCDLIQSKCLSKENATTDLLTKLPAHTVGDVKCDMEVSCPDGYTCCRLQSGAWGCCPFTQAVCCEDHIHCCPAGFTCDTQKGTCEQGPHQVPWMEKAPAHLSLPDPQALKRDVPCDNVSSCPSSDTCCQLTSGEWGCCPIPEAVCCSDHQHCCPQGYTCVAEGQCQRGSEIVAGLEKMPARRASLSHPRDIGCDQHTSCPVGQTCCPSLGGSWACCQLPHAVCCEDRQHCCPAGYTCNVKARSCEKEVVSAQPATFLARSPHVGVKDVECGEGHFCHDNQTCCRENRQGWACCPYRQGVCCADRRHCCPAGFRCAARGTKCLRREAPRWDAPLRDPALRQLL [D536E] | with no effect |
